In patent US20250043302A1, “MUTATED HYDROXYPHENYLPYRUVATE DIOXYGENASE POLYPEPTIDE, AND CODING GENE AND USE THEREOF” (BEIJING DABEINONG BIOTECHNOLOGY CO., LTD., priority 2021, published 2025):

Legend:
Format in all cases: in vivo
[1] = tested on: Arabidopsis thaliana T1 plants; assay: Mesotrione tolerance of transgenic Arabidopsis thaliana T1 plants (spray, bleached leaf area grade, damage score); parameters: Scores: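 damage score 0-100 computed as Σ(N×S)/(T×M)×100 over grades 0-3 with higher meaning more damage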; settings: Table 9; for Classification and statistics of the grade of pesticide damage Grade 0: number of plants at grade 0; for Classification and statistics of the grade of pesticide damage Grade 1: number of plants at grade 1; for Classification and statistics of the grade of pesticide damage Grade 2: number of plants at grade 2; for Classification and statistics of the grade of pesticide damage Grade 3: number of plants at grade 3; for Scores: pesticide damage score
Outline: (§1)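 Damage graded 0–3 from the proportion of bleached leaf area 7 days after spraying. Plants were glufosinate-selected T1 lines, 18 days after sowing, plus vector and wild-type controls. Rates: mesotrione 52.5–420, isoxaflutole 35–280, topramezone 25–200 g ai/ha, with water (0×).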

[2] = tested on: Arabidopsis thaliana T1 plants; assay: Topramezone tolerance of transgenic Arabidopsis thaliana T1 plants (spray, bleached leaf area grade, damage score); settings: for Resistance evaluation / Scores / Grade 0 (classification and statistics of the grade of pesticide damage; number of plants) / Grade 1 (classification and statistics of the grade of pesticide damage; number of plants) / Grade 2 (classification and statistics of the grade of pesticide damage; number of plants) / Grade 3 (classification and statistics of the grade of pesticide damage; number of plants): Arabidopsis thaliana T1 plants; for Grade 0 (classification and statistics of the grade of pesticide damage; number of plants) / Grade 1 (classification and statistics of the grade of pesticide damage; number of plants) / Grade 2 (classification and statistics of the grade of pesticide damage; number of plants) / Grade 3 (classification and statistics of the grade of pesticide damage; number of plants): 16 plants
Outline: as §1

[3] = tested on: Arabidopsis thaliana T1 plants; assay: Isoxaflutole tolerance of transgenic Arabidopsis thaliana T1 plants (spray, bleached leaf area grade, damage score); settings: Arabidopsis thaliana T1 plants; for Grade 0 (classification and statistics of the grade of pesticide damage; number of plants) / Grade 1 (classification and statistics of the grade of pesticide damage; number of plants) / Grade 2 (classification and statistics of the grade of pesticide damage; number of plants) / Grade 3 (classification and statistics of the grade of pesticide damage; number of plants): 16 plants;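 on Scores: Weighted damage index from 0 to 100 where higher means more damage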
Outline: as §1

[4] = topramezone 100 g ai/ha (4x field concentration)
[5] = topramezone 200 g ai/ha (8x field concentration)
[6] = isoxaflutole 140 g ai/ha (2x field concentration)
[7] = isoxaflutole 280 g ai/ha (4x field concentration)

B1: AsHPPDm-F372G-02: nucleotide sequence encoding Avena sativa HPPD with F372G; vector DBN11774 (nucleic acid)
DNA: ATGCCACCTACTCCAGCTACAGCTACTGGTGCTGCTGCTGCTGCCGTTACTCCTGAGCACGCTGCCAGGTCATTCCCCAGGGTGGTTCGCGTGAACCCCAGATCTGATAGGTTCCCAGTTCTGAGCTTCCACCATGTTGAGCTGTGGTGCGCTGATGCTGCTTCTGCTGCTGGCAGGTTCTCTTTCGCTCTTGGTGCTCCACTCGCTGCTAGATCTGATCTGTCTACAGGAAATAGCGCTCATGCCTCACTCCTGCTTCGCTCAGGTGCTTTGGCCTTCCTCTTCACCGCTCCATATGCTCCCCCACCTCAGGAGGCTGCTACTGCTGCTGCTACAGCCTCCATTCCAAGCTTCTCAGCTGATGCCGCTAGAACCTTCGCTGCTGCTCATGGACTTGCCGTGAGGTCTGTTGGTGTTCGCGTGGCTGATGCTGCTGAGGCTTTCAGAGTTTCCGTTGCCGGCGGAGCTAGGCCAGCTTTCGCTCCTGCTGATTTGGGACATGGTTTCGGCCTGGCTGAGGTTGAGCTTTACGGTGACGTGGTTCTCCGCTTCGTGTCTTACCCAGATGAGACTGACCTGCCTTTCCTTCCCGGCTTCGAGAGAGTTTCCTCTCCTGGTGCCGTGGATTACGGCCTGACAAGGTTCGACCACGTGGTTGGAAACGTTCCCGAGATGGCTCCAGTGATCGATTACATGAAGGGCTTCCTTGGATTCCATGAGTTCGCCGAGTTCACTGCTGAGGACGTGGGAACCACTGAGTCCGGTTTGAACTCTGTGGTTCTCGCCAACAATTCTGAGGCTGTTTTGCTCCCTCTGAATGAGCCTGTGCATGGAACCAAGAGGAGAAGCCAGATTCAAACTTACCTGGAGTACCACGGTGGCCCTGGAGTTCAGCATATCGCCCTTGCTTCTAATGATGTGTTGCGCACACTCAGAGAGATGCGCGCCAGAACCCCCATGGGAGGTTTCGAGTTCATGGCCCCACCACAGGCTAAGTACTACGAGGGCGTTAGAAGGATTGCTGGAGACGTGTTGAGCGAGGAGCAGATCAAGGAGTGCCAAGAGCTGGGTGTTCTTGTGGATAGGGATGACCAGGGCGTTCTGCTTCAAATTGGTACTAAGCCAGTGGGCGACCGCCCTACATTCTTCCTTGAGATGATTCAAAGAATCGGCTGCATGGAGAAGGATGAGGTTGGACAGGAGTACCAAAAGGGCGGATGCGGTGGCTTCGGAAAGGGTAACTTCAGCGAGTTGTTCAAGTCAATCGAGGACTACGAGAAGAGCCTCGAGGTGAAGCAGTCAGTGGTTGCCCAAAAGTCCTGA
modifications: AsHPPDm-F372G-02 Nucleotide Sequence
notes: vector DBN11774
In the case of B1, the Resistance evaluation ([1]; mesotrione 210 g ai/ha (2×)) is reported as “Moderately”, the “Classification and statistics of the grade of pesticide damage Grade 0” value ([1]; mesotrione 210 g ai/ha (2×)) is reported as 5 and the “Classification and statistics of the grade of pesticide damage Grade 1” value ([1]; mesotrione 210 g ai/ha (2×)) is reported as 8. The “Classification and statistics of the grade of pesticide damage Grade 2” value ([1]; mesotrione 210 g ai/ha (2×)) was 2, the “Classification and statistics of the grade of pesticide damage Grade 3” value ([1]; mesotrione 210 g ai/ha (2×)) was 1 and the Scores ([1]; mesotrione 210 g ai/ha (2×)) was 31. The Resistance evaluation ([1]; mesotrione 420 g ai/ha (4×)) was “Poorly resistant”, the “Classification and statistics of the grade of pesticide damage Grade 0” value ([1]; mesotrione 420 g ai/ha (4×)) was 0 and the “Classification and statistics of the grade of pesticide damage Grade 1” value ([1]; mesotrione 420 g ai/ha (4×)) was 8. For the same molecule, the “Classification and statistics of the grade of pesticide damage Grade 2” value ([1]; mesotrione 420 g ai/ha (4×)) was 8, the “Classification and statistics of the grade of pesticide damage Grade 3” value ([1]; mesotrione 420 g ai/ha (4×)) was 0 and the Scores ([1]; mesotrione 420 g ai/ha (4×)) was 50. The Resistance evaluation [2, 4] was “Highly resistant”, the Scores [2, 4] was 0 and the “Grade 0 (classification and statistics of the grade of pesticide damage; number of plants)” value [2, 4] was 16. The “Grade 1 (classification and statistics of the grade of pesticide damage; number of plants)” value [2, 4] was 0, the “Grade 2 (classification and statistics of the grade of pesticide damage; number of plants)” value [2, 4] was 0 and the “Grade 3 (classification and statistics of the grade of pesticide damage; number of plants)” value [2, 4] was 0. The Resistance evaluation [2, 5] was “Highly resistant”, the Scores [2, 5] was 0 and the “Grade 0 (classification and statistics of the grade of pesticide damage; number of plants)” value [2, 5] was 16. The “Grade 1 (classification and statistics of the grade of pesticide damage; number of plants)” value [2, 5] was 0, the “Grade 2 (classification and statistics of the grade of pesticide damage; number of plants)” value [2, 5] was 0 and the “Grade 3 (classification and statistics of the grade of pesticide damage; number of plants)” value [2, 5] was 0. For the same molecule, the “tolerance to topramezone (resistance class)” value ([2]; topramezone at four-fold or eight-fold field concentration) was “highly-resistant”, the Resistance evaluation [3, 6] was “Moderately” and the Scores [3, 6] was 29. The “Grade 0 (classification and statistics of the grade of pesticide damage; number of plants)” value [3, 6] was 6, the “Grade 1 (classification and statistics of the grade of pesticide damage; number of plants)” value [3, 6] was 7 and the “Grade 2 (classification and statistics of the grade of pesticide damage; number of plants)” value [3, 6] was 2. For the same molecule, the “Grade 3 (classification and statistics of the grade of pesticide damage; number of plants)” value [3, 6] was 1, the Resistance evaluation [3, 7] was “Poorly resistant” and the Scores [3, 7] was 67. The “Grade 0 (classification and statistics of the grade of pesticide damage; number of plants)” value [3, 7] was 0, the “Grade 1 (classification and statistics of the grade of pesticide damage; number of plants)” value [3, 7] was 0 and the “Grade 2 (classification and statistics of the grade of pesticide damage; number of plants)” value [3, 7] was 16. The “Grade 3 (classification and statistics of the grade of pesticide damage; number of plants)” value [3, 7] was 0.
